Results as given in paper PMC2172211 (The Journal of Cell Biology, 2004).

Target: T1, GST-Patj (Drosophila, UniProt Q9NB04 1-871)
T1 sequence (looked up): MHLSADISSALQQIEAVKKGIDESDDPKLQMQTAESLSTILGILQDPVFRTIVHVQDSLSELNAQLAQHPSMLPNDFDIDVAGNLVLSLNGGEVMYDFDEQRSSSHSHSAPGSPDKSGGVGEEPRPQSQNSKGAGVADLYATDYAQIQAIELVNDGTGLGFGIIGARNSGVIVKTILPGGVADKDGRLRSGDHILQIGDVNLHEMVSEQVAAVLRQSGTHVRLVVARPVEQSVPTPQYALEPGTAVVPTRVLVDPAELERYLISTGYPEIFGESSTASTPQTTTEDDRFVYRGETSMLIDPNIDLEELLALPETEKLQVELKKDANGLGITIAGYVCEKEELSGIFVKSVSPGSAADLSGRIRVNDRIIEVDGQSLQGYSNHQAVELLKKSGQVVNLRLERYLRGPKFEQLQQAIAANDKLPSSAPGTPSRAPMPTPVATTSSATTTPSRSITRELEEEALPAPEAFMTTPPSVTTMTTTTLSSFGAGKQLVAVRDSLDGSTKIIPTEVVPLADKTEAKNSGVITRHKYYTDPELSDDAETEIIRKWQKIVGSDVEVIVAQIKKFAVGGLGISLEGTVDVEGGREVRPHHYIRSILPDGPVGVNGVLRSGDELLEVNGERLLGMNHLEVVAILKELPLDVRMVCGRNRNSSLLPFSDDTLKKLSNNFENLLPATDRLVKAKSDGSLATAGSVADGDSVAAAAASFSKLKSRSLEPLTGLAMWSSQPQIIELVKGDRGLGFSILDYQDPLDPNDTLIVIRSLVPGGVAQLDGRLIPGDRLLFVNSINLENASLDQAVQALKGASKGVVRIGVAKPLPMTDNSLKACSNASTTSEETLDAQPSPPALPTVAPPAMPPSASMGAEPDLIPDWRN
Experiment: pull-down

B1: His-tagged DaPKC (enzyme, Drosophila, UniProt A1Z9X0 1-606, looked up)
chain: MQKMPSQILNDGSSVSLNSASMNMANTPNSITVKTAYNGQIIITTINKNISYEELCYEIRNICRFPLDQPFTIKWVDEENDPCTISTKMELDEAIRLYEMNFDSQLVIHVFPNVPQAPGLSCDGEDRSIYRRGARRWRKLYRVNGHIFQAKRFNRRAFCAYCQDRIWGLGRQGFKCIQCKLLVHKKCHKLVQKHCTDQPEPLVKERAEESSDPIPVPLPPLPYEAMSGGAEACETHDHAHIVAPPPPEDPLEPGTQRQYSLNDFELIRVIGRGSYAKVLMVELRRTRRIYAMKVIKKALVTDDEDIDWVQTEKHVFETASNHPFLVGLHSCFQTPSRLFFVIEFVRGGDLMYHMQRQRRLPEEHARFYAAEISLALNFLHEKGIIYRDLKLDNVLLDHEGHIKLTDYGMCKEGIRPGDTTSTFCGTPNYIAPEILRGEDYGFSVDWWALGVLLYEMLAGRSPFDLAGASENPDQNTEDYLFQVILEKTIRIPRSLSVRAASVLKGFLNKNPADRLGCHRESAFMDIVSHPFFKNMDWELLERKQVTPPFKPRLDSDRDLANFPPEFTGEAVQLTPDDDHVIDNIDQSEFEGFEYVNPLLMSLEDCV
binding result: binds
